Test results reported in doi:10.1101/553800.

Target: hRIO2(1-321)Δ(131-146) (human) (UniProt Q9BVS4)
Test: AUC

hRIO2(1-321)Δ(131-146) (from UniProt Q9BVS4 1-321) (domain or fragment)
percent dimer at 27 μM: > 20% | stoichiometry N: 2
